Patent publication US20250387474A1 (MEDICENNA THERAPEUTICS, published 2025)

Target: T1, MDNA132LR-Fc (1:1 KIH) (Homo sapiens (Human), UniProt P0DOX5 223-448 = IgG part)
T1 construct: also called MDNA132^L39/R111-Fc (1:1 KIH); MDNA132-Fc
Assay: SPR, construct captured on anti-human IgG (Fc) antibody on a CM5 chip, human receptor as analyte

B1: human IL-13Rα2 (receptor, UniProt Q14627 27-343, looked up)
chain: DTEIKVNPPQDFEIVDPGYLGYLYLQWQPPLSLDHFKECTVEYELKYRNIGSETWKTIITKNLHYKDGFDLNKGIEAKIHTLLPWQCTNGSEVQSSWAETTYWISPQGIPETKVQDMDCVYYNWQYLLCSWKPGIGVLLDTNYNLFYWYEGLDHALQCVDYIKADGQNIGCRFPYLEASDYKDFYICVNGSSENKPIRSSYFTFQLQNIVKPLPPVYLTFTRESSCEIKLKWSIPLGPIPARCFDYEIEIREDDTTLVTATVENETYTLKTTNETRQLCFVVRSKVNIYCSDDGIWSEWSDKQCWEGEDLSKKTLLR
notes: also called Human IL-13 R alpha 2 Protein; IL-13 decoy receptor
How did the Kd turn out when B1 was run?
Its Kd is 3.6 nM.

B2: human IL-13Rα1 (receptor)
chain: GGGGAAPTETQPPVTNLSVSVENLCTVIWTWNPPEGASSNCSLWYFSHFGDKQDKKIAPETRRSIEVPLNERICLQVGSQCSTNESEKPSILVEKCISPPEGDPESAVTELQCIWHNLSYMKCSWLPGRNTSPDTNYTLYYWHRSLEKIHQCENIFREGQYFGCSFDLTKVKDSSFEQHSVQIMVKDNAGKIKPSFNIVPLTSRVKPDPPHIKNLSFHNDDLYVQWENPQNFISRCLFYEVEVNNSQTETHNVFYVQEAKCENPEFERNVENTSCFMVPGVLPDTLNTVRIRVKTNKLCYEDDKLWSNWSQEMSIGKKRNST
notes: also called Human IL-13 R alpha 1 Protein; IL-13 functional receptor
Does B2 bind?
Result: no binding (tested: 1000 nM)
